We go through one molecule from article PMC11566999.

The target in the data set is T1, YTH-YPet (UniProt Q9Y5A9 380-579).
T1 sequence: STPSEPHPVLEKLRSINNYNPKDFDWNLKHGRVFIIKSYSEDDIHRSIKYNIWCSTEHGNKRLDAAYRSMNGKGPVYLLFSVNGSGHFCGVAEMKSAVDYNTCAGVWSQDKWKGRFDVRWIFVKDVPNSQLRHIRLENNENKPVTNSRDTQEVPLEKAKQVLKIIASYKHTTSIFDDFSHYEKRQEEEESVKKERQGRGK
In words: EMSA.

B1: aRNA (structured_RNA)
RNA: CCGGACUGUACAUGAGGAUCACCCAUGU
Regarding B1, the binding result is given as “no binding”.
